Experimental data reported in patent US20120165211A1, “Human Antibodies Cross-Reacting With A Bacterial And A Self Antigen From Atherosclerotic Plaques” (priority 2007, published 2012).

Key:
[1] = target: T1, transgelin 1 (SM22) (Homo sapiens, UniProt Q01995); assay: 2D electrophoresis Western blotting on plaque lysate and MALDI-ToF identification of the recognized antigen; type: binding; conditions: two distinct spots of the 2D gel; confirmed by protein sequencing
T1 construct: A piece of the coronary plaque was weighted (65 mg), cut in small fragments and directly smashed with a Dounce; from tissue; host or cells: human coronary atherosclerotic plaque
T1 sequence (Q01995 whole entry, the tested form may be a part): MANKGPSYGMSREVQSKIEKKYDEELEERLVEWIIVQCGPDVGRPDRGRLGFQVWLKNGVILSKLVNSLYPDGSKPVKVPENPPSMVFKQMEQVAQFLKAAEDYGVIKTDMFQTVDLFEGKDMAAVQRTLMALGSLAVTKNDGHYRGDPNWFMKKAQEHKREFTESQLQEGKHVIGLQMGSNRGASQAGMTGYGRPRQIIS
Description: A piece of the coronary plaque was weighted (65 mg), cut in small fragments and directly smashed with a Dounce in 500 μl of the R5 buffer, containing: urea 8M, thiourea 2M, CHAPS 4%, Zwittergent 0.05%, 40 mM trizma base and a cocktail of protease inhibitors. The lysate was then sonicated for 5 minutes and centrifuged at 13,000 rpm for 30 minutes at 15° C. Supernatant protein content was evaluated by Bradford assay, using BSA dissolved in the same buffer, as standard. The proteins (200 μg), dissolved in R5 buffer (final volume 130 μl), were added to DeStreak (100 mM) and 2% IPG buffer pH 3-10NL, prior to loading the sample on strip pH 3-10NL, 7 cm. Total focusing run for the 1st dimension was 50,000 Vh. The 2nd dimension was carried out using 12.5% acrylamide SDS-PAGE. MW Standard proteins were run on the same gel. The gel was stained with colloidal Coomassie Brilliant Blue (cCBB). […]
Protein corresponding to positive spots in WB were excised from the gel, destained, reduced with DTE (10 mM in ammonium bicarbonate 25 mM) at 56° C. for 30 minutes, alkylated with IAA (55 mM in ammonium bicarbonate 25 mM) in the dark at room temperature for 20 minutes. They were digested with trypsin and directly analysed by MALDI-ToF mass spectrometry, using alpha-cyano-4-hydroxycinnamic acid as matrix. […]

[2] = target: T2, recombinant transgelin (rTAGLN) (Homo sapiens, UniProt Q01995); type: binding; conditions: 4-500 ng rTAGLN per well
T2 construct: purchased Origene TP302448
T2 sequence (Q01995 whole entry): as the sequence (Q01995 whole entry, the tested form may be a part) above

[3] = tested on: antigen in the carotid lysate; assay: Western blotting on carotid lysates; type: binding, human; conditions: Fab 10 μg/ml; protein extracts 20 μg/lane
Description: Carotid plaques were macrodissected in 2 mm-thick rings and frozen in isopentane/liquid nitrogen. Every ring was considered as a single specimen. For each patient proteins were extracted from a stenotic and a non-stenotic ring by tissue homogenization in RIPA lysis buffer. The protein content of carotid plaque homogenates was quantified by Bradford assay. Western blot was performed on protein extracts (20 μg/lane) by using 10% Sodium Dodecyl Sulphate-PolyAcrylamide Gel Electrophoresis (SDS-PAGE). SDS-PAGE loading buffer was added to protein lysates before heating at 90° C. for 5 min. Gel was run for about 2 hours at 120V. […] Target (7816-FLAG) and reference proteins (bActin) were detected with specific antibodies (anti-FLAG clone M2 followed by Rabbit-anti Mouse IgG-HRP, and Rabbit-anti Mouse IgG-HRP, respectively—all from Sigma (cod: A9917, St. Louis, Mo.). The membrane was developed by SuperSignal West Pico Chemiluminescent Substrate (Pierce) according to the manufacture instructions. The mean pixel optical density (OD) for each band of the target protein, determined by densitometry, was normalized vs. β-Actin, to evaluate its quantity with respect to carotid plaque total cells. Stenotic and non stenotic rings from stable and unstable (determined by US) carotid plaque specimens were compared.

[4] = target: T3, purified OmpK36 (Klebsiella pneumoniae, UniProt Q48473); assay: Western blot of purified OmpK36 with recombinant Fabs; type: binding; conditions: 400 ng OmpK36His per lane; Fabs at 10 μg/L; blocking PBS/BSA10%
T3 construct: made in house; host or cells: E. coli BL21 (DE3), pET28b (BamHI/XhoI cloning)
Description: 400 ng of purified OmpK36His was loaded on polyacrylamide gel (all lanes) and SDS-PAGE was performed. Proteins were blotted on PVDF membrane for 2 h at 350 mA. After blocking with PBS/BSA10% the membrane was cut to single lanes and each lane was incubated for 1 h with Fabs at 10 μg/L. After three washes membrane was incubated with anti-Human Light Chain K antibody (Sigma).

[5] = tested on: carotid plaque; assay: Immunohistology (immunofluorescence) on carotid plaque sections; type: binding, human; conditions: 7816Fab-FLAG detected with anti-FLAG clone M2 and anti-Mouse IgG AlexaFluor488
Description: Carotid plaques harvested during TEA surgery, just after excision were fixed in 4% paraformaldehyde in PBS, cut in consecutive 2 mm thick rings, decalcified in EDTA solution when required, cryoprotected in 10% sucrose in PBS, embedded in OCT compound, then snap frozen in isopentane/liquid nitrogen and stored at −80° C. Cryosections ([…]) were cut from every ring and stained with either Hematoxylin/Eosin or Movat's pentachrome, thus the morphology was examined in at least 4 sections/ring using an Eclipse 55i microscope equipped with DS-L1 camera and LUCIA 4.82 software (all from Nikon, Tokyo, J). Multiple images collected from each ring, were composed by LUCIA 4.82 software, to obtain a whole section picture. The presence of thin cap, foam cells, fibrolipids, ulcerations, necrotic/thrombotic core, calcifications, hemorrhage/thrombosis and inflammatory infiltrate were used to classify carotid plaques as stable, vulnerable, or unstable, following Virmani's modified AHA classification. Additional sections (10 μm thick) from rings with and without atheroma were selected and submitted for immunolabeling with anti CD138 antibody or with 7816Fab-FLAG detected with anti-FLAG clone M2 followed by rabbit-anti-Mouse IgG AlexaFluor488. DAPI stained the nuclei. […] The nuclear fluorescence was due to DAPI staining.

B1: Fab7816: human recombinant Fab from coronary plaque library ID11LIB; heavy chain SEQ ID NO:2, light chain SEQ ID NO:4 (antibody, listed as Homo sapiens, V domains shown)
VH: LESGPGQVKPSQTLSLTCTVSGGSIGSGSYSWNWIRQPAGRGLEWIGRISDSGNTNFNPSLKSRVTMSVDTSKNQFALKLTSVTAADTATYFCARGRGILTGLFDYWGQGSLVSVSSASTKGPSVFPLAPSSKSTSGGTAALGCLVKD
VL: SPDSLAVSPGGRATIKCASSQSVLDNSNHKNSLAWYQQKPGLPPKLLIYWASTRYSGVPDRFSGSGSGTDFTLTINNLQAADVAVYFCQQYYSTPWTFGQGTKVE
[1]
  self antigen recognized in plaque lysate (2DE-WB spots, mass spectrometry): transgelin 1 (SM22) was unequivocally identified as the putative natural (self) antigen
[2]
  binding to human transgelin in Western blot: recognize human transgelin
[3]
  binding in Western blot on carotid lysate: binding with an antigen in the carotid lysate
[4]
  reactivity with purified OmpK36 in western-blot: react with purified OmpK36
[5]
  immunofluorescence staining of carotid plaque sections: specific immonostaining, mainly cytoplasmic
